The record followed here is patent publication US20240301039A1 (NEW YORK UNIVERSITY IN ABU DHABI, published 2024).

In the test the target is T1, uniformly 15N,13C-labelled wild-type SARS-CoV-2 NSP9 with an additional GlyAlaMetGly tetrapeptide at the … (SARS-CoV-2, UniProt P0DTD1 1-7096).
T1 construct: mature
Put plainly: 15N-1H HSQC NMR titration at 278 K.

B1: nanobody 2NSP23 (VHH)
VHH: QVQLQESGGGLVQPGGSLRLSCAASGLAFSMYTMGWFRQAPGKEREFVAMIISSGDSTDYADSVKGRFTISRDNGKNTVYLQMDSLKPEDTAVYYCAAPKFRYYFSTSPGDFDSWGQGTQVTVSS
notes: also called 2NSP23 with His Tag
Take B1: the “backbone amide cross-peaks that survive at protein/nanobody ratio 1:2” value was around 35%.
